From the nanobody polyreactivity screen of Harvey et al. (2022)

Experiment: yeast display, Sf9 membrane polyspecificity reagent, FACS + sequencing; frameworks hold sequencing errors
In short: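 Genes from sorted yeast were amplified by colony PCR, read by MiSeq 2 × 250 sequencing and filtered on CDR length. These cells carried a synthetic nanobody library in Saccharomyces cerevisiae BJ5465 and were sorted by FACS into low and high (top ~1%) gates on anti-HA and streptavidin fluorescence. Polyreactivity is labelled according to the gate of origin.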
For “QVQLVESGGGLVQAGGSLRLSCAASGRIFYHNAMGWYRQAPGKERELVAAIRWSGGSTYYADSEKGRFTISRDNAKNTVYLLMKSLKPEDTAVYYWATDVPIREIDEFGYWGQGTQVTVSS”, the “polyreactivity (PSR sort gate)” value was “low polyreactivity”.
For “QVQLVDSGGGVVQAGGSLRLSCPASGIILRRYAMGWYRQAQGKERELVARISYRGGRTNYADSVKGRFTISRDNAKNTVYLQMNSLKPEDTAVYYCAAVAWDYHEGTAYNYWGQGTQVTVSS”, the “polyreactivity (PSR sort gate)” value was “high polyreactivity”.
With “QVQLVESGGGLVQAGGSLRLSCAASGIISYLNAMGWYRQAPGKERELVAAITGGGRTNYADSVKGRFTFSRDNAKNTVYLQMNSLKPEDTAVYYCNAYSSNYRYWARRGRPYNYWGQGTQVTVSS” the “polyreactivity (PSR sort gate)” value was “high polyreactivity”.
For “QVQLVESGGGLVQAGGSLRLSCAASGSIFQDNTMGWYRQAPGKESELVAAISWSATSTYYADSVKGRFTISRDNAKNTVYLQMNSLNPEDTAVYYCAARYWLFPPGYNYWGQGTQVNVSS”, the “polyreactivity (PSR sort gate)” value was “high polyreactivity”.
For “QVQLVESGGGLVQAGGSLRLSCAASGSIFRWYAMGWYRQAPGKERELVAAISTSGGNTYYADSVKGRFTISRDNAKNTVYLQMNSLKPEDTAVYYCNALWYRSLSYRYDYWGQGTQVTVSS”, the “polyreactivity (PSR sort gate)” value was “high polyreactivity”.
In the case of “QVQLVESGGGLVQAGGSLRLSCAASGSILDYYVMGCSRQSPGKERELVAAIRGGGSTYYADSVKGRFTISRDNAKNTVYLQMNSLKPEDTAVYYCAKDSQTARDFDYWGQGTQVTVSS”, the “polyreactivity (PSR sort gate)” value is reported as “low polyreactivity”.
With “QVQLVESGGGLVQAGGSRRLSCAASGSTFYGYAMGWYRQAPGKERELVAAIRRIGGTTYADSVKGRFTLSRDNAKNTVYLQMNSLKPEDTAVYYCAAYGFSYRYRYYYWGQGTQVTVSS” the “polyreactivity (PSR sort gate)” value was “high polyreactivity”.
For “QVQLVESGGGLVQAGGSLRLSCAASGSTFSSYAMGWYRQAPGKERELVARITSGGSTYYADSVKGRFTISRDNAKNTVYSQMNSLKPEDTAVYYCAARGYYYRSRVSQFKYDYWGQGTQVTVSS”, the “polyreactivity (PSR sort gate)” value was “high polyreactivity”.
With “QVQLVESGGGLVQAGGSLRLSCAASGFTFPIYAMGWSRQAPGKEWELVAAISKGGARTYYADSVKGRFTISRDNAKNTVYLQMNSLNPEDTAVYYCAALGPGGWYDYWGQGTQVTVSS” the “polyreactivity (PSR sort gate)” value was “high polyreactivity”.
For “QVQLVESGGGLVQAGGSLRLSCAASGLIFASYAMGWYRQAPGKERELVATITVGGSTYYADSVKGRFTISRDNPKNTVYLQMISLKPEDTAVYYCNVGESVPWYEWGALWFSFDYWGQGTQVSVSS”, the “polyreactivity (PSR sort gate)” value was “high polyreactivity”.
In the case of “QVQLVESGGGLVQAGGSLRLSCAAYGIIFAYNAMGWYRQAPGKERELVATITDSGGSTSYADSEKGRFTISRDNAKNTVYLQMNSLKPEDTAVYYCAVLPVYWYWRNYVYLSGYDYWGQGTQVTVSS”, the “polyreactivity (PSR sort gate)” value is reported as “low polyreactivity”.
With “QVQLVESGGGLVQAGGRLRLSCAASGINLGRYAMGWYRQAPGKERELVASISWSGGSTYYADSVKGRFTISRDNAKNTVYLQMNSLIPEDPAVYYCAATYWKSRYGVRGYPFGYWGQGTQVTVSS” the “polyreactivity (PSR sort gate)” value was “high polyreactivity”.
With “QVQLVESGGGLVQAGGSLRLICAASGSTFLSNAMGWYRQATGKERELVAAITTSGTSTFYSDSVKGRFTISRDNAKNTVYLQMNSMKPEDTAVYYCAADSAHRYIPVQGYDYWGQGTQVTVSS” the “polyreactivity (PSR sort gate)” value was “low polyreactivity”.
In the case of “QVQLVESGGGLVQAGGSLRLSCAASGRTFPYYAMGWYRQAPGKERELVAAISSSGGRTYYADSVKGRFTISRDNAKNTVYLQMNSQKPEDTAVYYCAAQTPGVYLRQIGGYYYWGQGTQVTVSS”, the “polyreactivity (PSR sort gate)” value is reported as “low polyreactivity”.
With “QVQLVESGGGLVQAGGSLRLSCAAPGSIFPRYAMGWYRPAPGKERELVAAISRSGGSTYYADSVKGRFTISRDNAKNTVYLQMNSLKPEDTAVYYCATDKVSHRRYDYWGQGTQVTVSS” the “polyreactivity (PSR sort gate)” value was “high polyreactivity”.
In the case of “QVQIVESAAGIVQAGGSLRLSCAASGSIFLLYAIGWYRQAPGKEMEFVAAITRGGGSTYYADSVKGRFTISRDNEKNIDYLQINSLIPEDTAVYYWYKGFQYHNGSLVVAYDYWGQGTQVTVSS”, the “polyreactivity (PSR sort gate)” value is reported as “low polyreactivity”.
With “QVQLLESGAGLVHAGGSLRISCAASGRTFGLNAMAWNPPAHGKETELVAAISSSGGSTYYADSVKGRFTISRDNPKNTVYLQMNSLTPEDTAVYYCAKVLNRYGTAYYYWGQGTQVTVSS” the “polyreactivity (PSR sort gate)” value was “high polyreactivity”.
With “QVQLVESGGGLVQAGGSLRLSCAASGFIFIANGMGWNSQAPGKERALVAAITSGGGNTYYADSVKGRFTISRDNAKNTVYLQMNSLKPEDTAVYYCNAPSYGKFDYWGQGTQVTVSS” the “polyreactivity (PSR sort gate)” value was “high polyreactivity”.
With “QVQLVESGGGLVQAGGSLRLSCAASGSTFVKYDMGWYRQAPGKERELVAAITTTGGSTYYADSVKGRFTISRDNAKNTVYLQMNSLIPEDTAVYYCATLVSASRSRRFGYEYWGQGTQVTVSS” the “polyreactivity (PSR sort gate)” value was “high polyreactivity”.
For “QVQLVESGGRLVQAGGSLLLSCAASGRIFDKYAMGWYRQAPGKERELVAAITYIDSGTYYADSVKGRFTISRDNAKNTVYLQMNSLKPEDTAVYYCAARYPSDYDYWGQDTQVTVSS”, the “polyreactivity (PSR sort gate)” value was “low polyreactivity”.
With “QVQLVESAGGLVQAGGSLRLSCAASGRTFWSYAMGWSRQAPGKERELVAAINSGGSTYYADSVKGRFTISRDNAKITVYLQRNSLKPEDTAVYYCDADTWYGFDWGVGTQVTVSS” the “polyreactivity (PSR sort gate)” value was “high polyreactivity”.
For “QVQLVESGGGLVQAGGSLRLSCAASGFTFFLNAMGWYRQAPGKERELVAAINRSGGSTYYADSVKGRFTISRDNAKNTVYLQMNSLKPEDTAVYYCATYSFWHYAYDYWGQGTQVTVSS”, the “polyreactivity (PSR sort gate)” value was “low polyreactivity”.
With “QVQLVESGGGLVQAGGSLRLSCAASGSTFYVYAMGWYRQAPGKEREFVAAISFSSGSTYYADSVKGRFTISRDNAKNTVYLQMNMMNQEDTAVYDCAARYRYPRYIGYGYGGAFVYWGQGTQVTVSS” the “polyreactivity (PSR sort gate)” value was “high polyreactivity”.
With “QVQLVESGGGLVQAGGSLRLSCAASGLIFVGYVMGWYRQAPGKERELVAAITSSSGSTYYADSVKGRFTISRDNAKNTVYLQKNSLKPEDTAVYYCAAEWGYYWYYDSEYWGQGTQVTVSS” the “polyreactivity (PSR sort gate)” value was “high polyreactivity”.
With “QVHLVESGGGLVQAGGSLRLICAASGYIFPYYSMGWYRQAPGKERELVAGITTDGSSTYYADSVKGRFTISRDNAKKTVYLQMNSLKPEDTAVYYCYGYPGYTWGWYDFWGQGSQVTVSS” the “polyreactivity (PSR sort gate)” value was “low polyreactivity”.
With “QVQLVESGGGLVQAGGSLRLSCAASGSIFGRNDMGWYRQAAGKERELVAAISKRGGRTYYADSVKGRFTISRDNAKNTVYLQMNSLKPEDTAVYYCAADQPTLAYPGGYSAGMDYWGQGTQVTVSS” the “polyreactivity (PSR sort gate)” value was “high polyreactivity”.
For “QVQLVESGGGLVQAGGSLRLSCAASGSIFSFNAMGWYRQAPGKERELVAAISYSGGSTYADSVKGRFTISRDNAKNTVYLHMNSLKPEDTAVYYCAADGLDYSSGGDGYWGQGTQVTVSS”, the “polyreactivity (PSR sort gate)” value was “low polyreactivity”.
In the case of “QVQLVESGGGLVQAGGSLRLSCAASGRIFGYAMGWYRQAPGKERELVAAITSSGGRTYYADSVKGRFTISRDNVKNTVYLQMNSLKPVDTAVYYCAKKWPVYRSYDYWGQGTQVTVSS”, the “polyreactivity (PSR sort gate)” value is reported as “high polyreactivity”.
In the case of “QVQLVESGGGLVQAGGSLRLSCAASGSIFDSNAMGWYRQAPGKERELVAAINRSDASTYYADSVKGRFTISRDNAKNTDYLQMTSPQPEGTAVYYCGVEVYVYNVHIYDYWGQGTQVTVSS”, the “polyreactivity (PSR sort gate)” value is reported as “low polyreactivity”.
In the case of “QVQLVESGGGLVQAGGSLRLSCAASGSIFRYNAMGWYRQAPGKERELVASISWSGGSTYYADSVKGRFTISRDNAKNTVYLQMNSLKPEDNAFYYCNVYGKYFRSRYDSWGQGTQVNVSS”, the “polyreactivity (PSR sort gate)” value is reported as “high polyreactivity”.
In the case of “QVQLVESGGGLVQAGGSLRLSRAASGFIFVQNAMVWYRQAPGKERELVASLTSGGTTNYADSVKGRFTISRDNAKNTVYLQMNSLKPEDTAVYYCNARLERTPSLYLYGSWGQGTQVTESS”, the “polyreactivity (PSR sort gate)” value is reported as “low polyreactivity”.
In the case of “QVQLVESGLGLVQAGASLRVSCAASGSTFIFNTMGWSRQAPGKERELVAAIRLSGGSTYYADSVKGRFTITRDNAKNTVYLQMNSLNPEDTAVYYCARRLATRGHTYDYWGQGTQVTVSS”, the “polyreactivity (PSR sort gate)” value is reported as “low polyreactivity”.
For “QDQLVESGGGLVQAGGSLRLSCAASGSIFGGNTMGWYRQAPGKERELVAAISRSGGSTYYADSVKGRFTISRDNAKNTVYLQMNSLKPEDTEVYYCYRKQAGHAKGYDYWGQGTQVTVSS”, the “polyreactivity (PSR sort gate)” value was “high polyreactivity”.
For “QVQLVESGGGLVQAGGSLRLSCAASGRTFPRNAMGWYRQAPGKERELVAAITTSGGRTYYADSVKGRFTISRDNAKNTVYLQMNSLKPEDTAVYYCAVRYDTLAWYAFYYWGQGTQVTVSS”, the “polyreactivity (PSR sort gate)” value was “low polyreactivity”.
For “QVQLVESGGGLVQAGGSLRLSCAASGSIFRRYDMGWYRQAPGTERELVAAISSSGGSTYYADSVKGRFTISRDNAKNTVYLQMNILKPEDTAVYYCNTASNRYPGWRAEFDYWGQGTQVTVSS”, the “polyreactivity (PSR sort gate)” value was “low polyreactivity”.
With “QVQLVESGGGLVQAGGSLRLSCAASGSTFGPNTMGWYRQAPGKERELVAAITSTGSTYYADSVKGRFTISRDNGKNTVYFEMNILLPEDTAVYYCAARRYYGVYYAFYYWGQGTQVTVSS” the “polyreactivity (PSR sort gate)” value was “high polyreactivity”.
For “QVQLVESGGGLVQAGGSLRLSCAASGSTFGTYAMGWYRKAPGKERELVAAISTGGSTYYADSVKGRFTISRDNAKNTVYLQMNSLKPEDTAVYYCAALADYVRRASEYWGQGTQVTVSS”, the “polyreactivity (PSR sort gate)” value was “high polyreactivity”.
In the case of “QVQLVESGGGLVQAGGSLRLTCAASGITFGGYAMGWYRQAPGKERELVATITSGGSTYYADSVKGRFTISRDNAKNTVYLQMNSLKPEDTAVYYCNAVYNYWFWGGYWHRPNARGDYWGQGTQVTVSS”, the “polyreactivity (PSR sort gate)” value is reported as “high polyreactivity”.
In the case of “QVQLVESGGGLVQAGGSLRLSCAASGSTFLINVLGWYRQAPGKERELVARISWRAATTYYADSVKGRFTISRDNAKNTVYLPMYSLQPEDTAVYYCADDLYKRGFDYWGQGTQVTVSS”, the “polyreactivity (PSR sort gate)” value is reported as “low polyreactivity”.
In the case of “QVQLEESGGGLVQAGGSLRLSCAASGFIIHLYGMGWYRQAPGKERELVAAISSGGRTYYADSVKGRFTISRDNAKNTVDLQMNSMIPEVTAVSYSAVFVAYLYSYYYWGQGTQVTVSS”, the “polyreactivity (PSR sort gate)” value is reported as “low polyreactivity”.
With “QVQLVESGGGLVQAGGSLRLSCAASGIIFYGYAMGWYRQATGKERELVAAISSGGGTNYADSVKGRFTISRDNAKNTVYLQMNSLKPEDTAVYYCAARQYRYYYWGQGTQVTVSS” the “polyreactivity (PSR sort gate)” value was “high polyreactivity”.
In the case of “QVQLVESGGGLVQAGGSLRLSCAASGIIFYYAMGWYRQAPGKERELVASIRWSGDSTYYADSVKGRFTISRDNAKNTVYLQMNSLKPEDTAVYYCAAEPDSAVSYVSWRDYWGQGTQVTVSS”, the “polyreactivity (PSR sort gate)” value is reported as “low polyreactivity”.
With “QVQLVESGGGLVQAGGSLRLSCAASGRTFYRNAMGWYRQAPGKERELVATITRGGSTNYADSVKGRFTISRDNAKNTVYLQMNSLKPEDTAVYYCAAAQPGTNAYRVGSWGQGTQVTVSS” the “polyreactivity (PSR sort gate)” value was “high polyreactivity”.
